Measured values taken from patent US20250243282A1 (TRUEBINDING, published 2025).
Changes are numbered by the printed parent chain.

B1: TB001 (antibody, human IgG4 S228P, kappa, V domains shown)
VH: QVQLVQSGSELKKPGASVKVSCKASGYTFTNYGMNWVRQAPGQGLKWMGWINTNTGEPTYVEEFTGRFVFSLETSVSTAYLQISSLKAEDTAVYFCAPYDNFFAYWGQGTTVTVSS
VL: DIVLTQSPLSLPVTPGEPASISCRSSKSLLYKDGKTYLNWFLQKPGQSPQLLIYLMSTHASGVPDRFSGSGSGTDFTLKISRVEAEDVGVYYCQQLVDYPLTFGGGTKLEIKR
B2: 849.4F12 (antibody, V domains shown)
VH: QVQLKESGPGILQPSQTLSLTCSFSGFSLSTFGMGVGWIRQPSGKGLEWLAHIWWDDDKHYNPALKSRLTISKDTSKNQVFLRIANVDTADNATYYCARIDYGDYVGFAYWGQGTLVTVSA
VL: DILLTQSPSSMSVSLGDTVSITCHASQGINSNIGWLQQKPGKSFKGLIYHGTNLEDGVPSRFSGSGSGADYSLTISSLESEDFADYYCVQYDQFPWTFGGGTKLEIK
B3: 846T.4C9 (antibody, V domains shown)
VH: EVQLQQSGPELVKPGASVKMSCKASGYSFTNYIMHWVKQKPGQGLEWIGYINPYNDGTKYNEKFKGKATLTSDKSSSTAYMELSSLTSEDSAVYYCARLLFYYAMDYWGQGTSVTVSS
VL: B2 VL with L4M, S7T, N30S, G41R, H50Y
B4: 849.4B2 (antibody, V domains shown)
VH: DGKLQESGPGLVKPSQSLSLTCSVTGYSITSGYYWNWIRQFPGNKLEWMGHISYDGRNNYNPSLKNRISITRDTSKNQFFLKLNSVTTEDTATYYCAGYDFLWYFDVWGTGTTVTVSS
VL: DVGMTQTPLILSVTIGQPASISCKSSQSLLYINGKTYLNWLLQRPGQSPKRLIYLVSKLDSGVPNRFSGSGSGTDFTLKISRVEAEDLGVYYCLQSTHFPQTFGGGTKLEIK
B5: 847.15F9 (antibody, V domains shown)
VH: QVQMKQSGPGLVQPSQSLSITCTVSGFSLINYGVHWVRQSPGKGLEWLGVIWSGGSTDYNAAFISRLSISKDNSKSQVFFKMNSLQADDTAIYYCARIYYYGRGYAMDYWGQGTSVTVSS
VL: QIVLSQSPAILSASPGEKVTMTCRASSSVTYMYWYQQKPGSSPQPWIYATSNLASGVPARFSGSGSGTSYSLTISRVEAEDAATYYCQQWSSNPLTFGAGTKLELK
B6: 847.21B11 (antibody, V domains shown)
VH: QVQLKQSGPGLVAPSQSLSITCTVSGFSLTSYGVHWVRQPPGKGLEWLGIIWAGGSTNYNPALMSRLSISKDKSKSQVFLKMNSLKTDDTAMYYCARDRASLLRPGAMDYWGQGTSVTVSS
VL: DIVMTQSQKFMSTSVGDRVSVTCKASQNVGINVAWYQQKPGQSPKALIYSASYRYSGVPDRFTGSGSGTDFTLTISNVQSEDLAEYFCQQYNSYPYTFGGGTKLEMK
B7: 846.2B11 (antibody, human IgG4 S228P, kappa, V domains shown)
VH: QVQLQQSGPELVRPGALVKISCKASGYTFTSYDINWVKQRPGQGLEWIGWIYPGDGSTKYNEKFKGKATLTADKSSSTAYMQLSSLTSENSAVYFCAREAASNAMDYWGQGTSVTVSS
VL: DIVLTQSPASLGVSLGQRATISCRASKSVSTSGYSYMHWYQQKPGQPPKLLIYLASILESGVPARFSGSGSGTDFTLNIHPVEEEDAAIYYCQHSRELPLTFGAGTKLELKR
B8: recombinant human CD147, 6xHis-tagged (R&D Systems, 972-EMN) (receptor, not shown: small tags and cut ends)
chain: AAGTVFTTVEDLGSKILLTCSLNDSATEVTGHRWLKGGVVLKEDALPGQKTEFKVDSDDQWGEYSCVFLPEPMGTANIQLHGPPRVKAVKSSEHINEGETAMLVCKSESVPPVTDWAWYKITDSEDKALMNGSESRFFVSSSQGRSELHIENLNMEADPGQYRCNGTSSKGSDQAIITLRVRSHLAAL
notes: also called hCD147; EMMPRIN
B9: 2D10.2B2 (antibody, mouse IgG2a, V domains shown)
VH: QVQLQQSGPELVKPGASVKISCKASGYTFTDYYINWVKQRPGQGLEWIGWIYPGSNDTKYNEKFKGKATLTVDTSSSTAYMQLGSLTSEDSAVYFCANYFGCSGWFFDVWGTGTTVTVSS
VL: DIVMTQAAFSNPVTLGTSASISCRSSKSLLHSDGITYLYWYLQRPGQSPQLLIYRMSNLASGVPDRFSGSGSGTDFTLRISRVEAEDVGVYYCAQMIEFPLTFGAGTILELKR
B10: mIMT001 (antibody, mouse IgG2a, V domains shown)
VH: QIQLVQSGPELKKPGETVKISCKASGYTFTNYGMNWVKQAPGKGLKWMGWINTNTGEPTYVEEFKGRFAFSLETSASTAYLQINNLKNEDTATYFCAPYDNFFAYWGQGTLVTVSA
VL: DIVITQDELSNPVTSGESVSISCRSSKSLLYKDGKTYLNWFLQRPGQSPQLLIYLMSTHASGVSDRFSGSGSGTDFTLEISRVKAEDVGVYYCQQLVDYPLTFGAGTKLELKR
notes: also called murine IMT1; mIMT1
B11: 6H6.2D6 (antibody, human IgG4 S228P, kappa, V domains shown)
VH: QIQLVQSGPELKKPGETVKISCKASGYTFTTYGMSWVKQAPGKGLKWMAWINTYSGVPTYADDFKGRFAFSLETSASTAYLQINNLTNEDTATYFCARGPYAMDYWGQGTSVTVSS
VL: DIQMTQTTSSLSASLGDRVTISCSASQGISNYLNWYQQKPDGTVKLLIYYTSSLHSGVPSRFSGSGSGTDYSLTISNLEPEDIATYYCQQYSELPYTFGSGTKLEIKR
B12: 24D12.2H9 (antibody, human IgG4 S228P, kappa, V domains shown)
VH: QVQLKQSGPGLVQPSQSLSITCTVSGFSLTSYGVHWVRQAPGKGLEWLGVIWSGGSTDYNAAFMSRLSISKDNSKSQVFFKMNSLQADDTAIYYCAKSPDGYDVAWFGYWGQGTLVTVSA
VL: DIVMTQSHKFMSTSVGDRVSITCKASQDVRTAVAWYQQKPGQSPKLLIYWASTRHTGVPDRFTGSGSGTDFTLTLSNVQSEDLADYFCQQYSSYPWTFGGGTKLEIKR

Target: T1, Recombinant human Gal3 (rhGal3) (TrueBinding, #QC200361) (human, UniProt P17931 2-250)
Test: cell-based or functional assay
Throughout, for % inhibition of CD62L shedding: test concentration or dose not given here.
Throughout, for % inhibition of IL-6 secretion: test concentration or dose not given here.
Throughout, for % inhibition of TNFα secretion: test concentration or dose not given here.

Row | Binder | IC50 of blocking IL-6 secretion by HL60-derived neutrophils (rhGal3 + LPS) [nM] | IC50 of blocking TNFα secretion by HL60-derived neutrophils (rhGal3 + LPS) [nM]
1 | B1 | 509 | 393

Target: T2, human Gal3 protein (recombinant human Galectin-3) (human, UniProt P17931 2-250)
T2 construct: also called hGal3; hGAL3
Test: SPR (Carterra LSA), antibody immobilised on HC200M chip, hGal3 injected

T2 sequence (P17931 2-250 limits assumed): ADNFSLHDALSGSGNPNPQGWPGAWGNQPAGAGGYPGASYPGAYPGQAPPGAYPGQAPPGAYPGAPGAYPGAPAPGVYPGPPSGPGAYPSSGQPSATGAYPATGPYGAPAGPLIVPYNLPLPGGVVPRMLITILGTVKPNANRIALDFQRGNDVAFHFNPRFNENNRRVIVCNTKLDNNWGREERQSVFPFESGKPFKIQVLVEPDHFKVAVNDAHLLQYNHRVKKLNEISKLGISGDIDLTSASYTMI

Row | Binder | binding result
2 | B2 | no binding
3 | B3 | no binding
4 | B4 | no binding
5 | B5 | no binding
6 | B6 | no binding
7 | B7 | no binding

Target: T2, human Gal3 protein (recombinant human …)
Test: ELISA, hGal3 coated, receptor in solution

Row | Binder | binding result
8 | B8 | binds

Target: T2, human Gal3 protein (recombinant human …)
Test: not given

Row | Binder | % blocking [%]
9 | B9 | > 95
10 | B10 | > 95
11 | B11 | > 95
12 | B12 | 55

Target: T1, Recombinant human Gal3 (rhGal3) …
Test: cell-based or functional assay
Remark: another data set of the same source

Row | Binder | % inhibition of IL-6 secretion [%] | % inhibition of TNFα secretion [%]
13 | B2 | 1.2 | -81.5
14 | B3 | -38.3 | -299
15 | B4 | -9.8 | -162
16 | B5 | 16.6 | -178
17 | B6 | 27.3 | -136
18 | B12 | 22.3 | 46.5
19 | B1 | 45.6 | 81.4
20 | B7 | -0.5 | -98

Target: T1, Recombinant human Gal3 (rhGal3) …
Test: cell-based or functional assay
Remark: another data set of the same source

Row | Binder | % inhibition of CD62L shedding [%]
21 | B2 | 17.9
22 | B3 | 11.2
23 | B4 | 6.2
24 | B5 | 8.5
25 | B6 | 16.4
26 | B12 | 73.1
27 | B1 | 87.2
28 | B7 | 8.2
